This note sets out measurements from patent US20130164281A1 (SAMSUNG ELECTRONICS, published 2013).

The test has as its target T1, human c-Met protein antigen (human, UniProt P08581 25-932, limits assumed).
T1 construct: also called c-Met antigen
As to the kind of experiment: Biacore SPR, antibody immobilized on CM5 chip, human c-Met protein injected. (Surface plasmon resonance follows binding to a sensor surface in real time, without labels.)

T1 sequence (P08581 25-932 limits assumed): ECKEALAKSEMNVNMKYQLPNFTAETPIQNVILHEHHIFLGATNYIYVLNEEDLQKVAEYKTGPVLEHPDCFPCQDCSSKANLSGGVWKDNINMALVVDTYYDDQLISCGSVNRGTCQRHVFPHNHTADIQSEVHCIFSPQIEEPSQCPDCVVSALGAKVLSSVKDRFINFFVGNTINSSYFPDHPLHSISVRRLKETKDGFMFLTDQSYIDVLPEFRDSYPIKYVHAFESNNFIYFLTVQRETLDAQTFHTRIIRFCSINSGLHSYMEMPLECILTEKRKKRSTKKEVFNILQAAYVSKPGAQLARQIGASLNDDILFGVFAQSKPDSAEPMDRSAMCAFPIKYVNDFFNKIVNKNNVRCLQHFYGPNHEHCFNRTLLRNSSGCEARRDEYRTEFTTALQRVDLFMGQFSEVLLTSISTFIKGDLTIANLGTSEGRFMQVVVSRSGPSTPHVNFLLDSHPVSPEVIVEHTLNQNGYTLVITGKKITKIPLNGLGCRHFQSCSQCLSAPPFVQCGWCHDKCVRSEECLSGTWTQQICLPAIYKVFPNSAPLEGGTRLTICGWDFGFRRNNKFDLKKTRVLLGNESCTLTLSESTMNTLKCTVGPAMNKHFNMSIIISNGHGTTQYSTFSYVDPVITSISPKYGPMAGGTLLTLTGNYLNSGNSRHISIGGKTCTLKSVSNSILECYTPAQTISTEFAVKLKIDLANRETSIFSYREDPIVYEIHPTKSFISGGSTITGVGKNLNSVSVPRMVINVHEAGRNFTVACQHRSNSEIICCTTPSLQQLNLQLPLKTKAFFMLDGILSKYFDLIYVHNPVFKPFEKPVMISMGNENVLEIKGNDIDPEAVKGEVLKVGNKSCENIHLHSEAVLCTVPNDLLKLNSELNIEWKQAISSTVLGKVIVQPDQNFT

B1: chimeric antibody chAbF46 (antibody, V domains shown)
VH: EVKLVESGGGLVQPGGSLRLSCATSGFTFTDYYMSWVRQPPGKALEWLGFIRNKANGYTTEYSASVKGRFTISRDNSQSILYLQMDTLRAEDSATYYCARDNWFAYWGQGTLVTVSA
VL: DILMTQSPSSLTVSAGEKVTMSCKSSQSLLASGNQNNYLAWHQQKPGRSPKMLIIWASTRVSGVPDRFIGSGSGTDFTLTINSVQAEDLAVYYCQQSYSAPLTFGAGTKLELKR
For orientation: Kd means the equilibrium constant for the complex coming apart. Read a high Kd as a looser complex. Molecule B1 gave an equilibrium dissociation constant (Kd) of 4.27 nM.
